{
  "source": "the supplement of paper PMC10567573",
  "parents": {"B1": {"name": "RAB11A (parent)", "chain": "AVPTDEARAFAEKNGLSFIETSAL"}},
  "data": [
    {"variants_of": "B1", "experiment": "protein stability index of a GFP-peptide fusion (GPS, HEK-293T) (PSI 1-6); higher = more stable", "details": "c terminus: a fixed tail appended", "values": [
      {"variant": "AVPTDEARAFAEKNLLSFIETSAL", "note": "[G15L]", "protein stability index": 1.67},
      {"variant": "AVPTDEARAFAEKNVLSFIETSAL", "note": "[G15V]", "protein stability index": 2.64},
      {"variant": "AVPTDEARAFAEKNDLSFIETSAL", "note": "[G15D]", "protein stability index": 3.87},
      {"variant": "AVPTDEARAFAEKNALSFIETSAL", "note": "[G15A]", "protein stability index": 2.08},
      {"variant": "AVPTDEARAFAEKNTLSFIETSAL", "note": "[G15T]", "protein stability index": 1.7},
      {"variant": "AVPTDEARAFAEKNSLSFIETSAL", "note": "[G15S]", "protein stability index": 2.06},
      {"variant": "AVPTDEARAFAEKNQLSFIETSAL", "note": "[G15Q]", "protein stability index": 2.58},
      {"variant": "AVPTDEARAFAEKNRLSFIETSAL", "note": "[G15R]", "protein stability index": 2.52},
      {"variant": "AVPTDEARAFAEKNILSFIETSAL", "note": "[G15I]", "protein stability index": 2.8},
      {"variant": "AVPTDEARAFAEKNELSFIETSAL", "note": "[G15E]", "protein stability index": 3.33},
      {"variant": "AVPTDEARAFAEKNWLSFIETSAL", "note": "[G15W]", "protein stability index": 2.3},
      {"variant": "AVPTDEARAFAEKNMLSFIETSAL", "note": "[G15M]", "protein stability index": 2.02},
      {"variant": "AVPTDEARAFAEKNFLSFIETSAL", "note": "[G15F]", "protein stability index": 1.82},
      {"variant": "AVPTDEARAFAEKNYLSFIETSAL", "note": "[G15Y]", "protein stability index": 1.74},
      {"variant": "AVPTDEARAFAEKNCLSFIETSAL", "note": "[G15C]", "protein stability index": 2.59},
      {"variant": "AVPTDEARAFAEKNKLSFIETSAL", "note": "[G15K]", "protein stability index": 2.92},
      {"variant": "AVPTDEARAFAEKNPLSFIETSAL", "note": "[G15P]", "protein stability index": 2.2},
      {"variant": "AVPTDEARAFAEKNHLSFIETSAL", "note": "[G15H]", "protein stability index": 2.15},
      {"variant": "AVPTDEARAFWEKNGLSFIETSAL", "note": "[A11W]", "protein stability index": 1.9},
      {"variant": "AVPTDEARAFGEKNGLSFIETSAL", "note": "[A11G]", "protein stability index": 1.97},
      {"variant": "AVPTDEARAFVEKNGLSFIETSAL", "note": "[A11V]", "protein stability index": 2.65},
      {"variant": "AVPTDEARAFCEKNGLSFIETSAL", "note": "[A11C]", "protein stability index": 2.32},
      {"variant": "AVPTDEARAFMEKNGLSFIETSAL", "note": "[A11M]", "protein stability index": 2.24},
      {"variant": "AVPTDEARAFREKNGLSFIETSAL", "note": "[A11R]", "protein stability index": 2.12},
      {"variant": "AVPTDEARAFFEKNGLSFIETSAL", "note": "[A11F]", "protein stability index": 1.94},
      {"variant": "AVPTDEARAFIEKNGLSFIETSAL", "note": "[A11I]", "protein stability index": 1.91},
      {"variant": "AVPTDEARAFQEKNGLSFIETSAL", "note": "[A11Q]", "protein stability index": 2.21},
      {"variant": "AVPTDEARAFHEKNGLSFIETSAL", "note": "[A11H]", "protein stability index": 2.64},
      {"variant": "AVPTDEARAFNEKNGLSFIETSAL", "note": "[A11N]", "protein stability index": 2.5},
      {"variant": "AVPTDEARAFLEKNGLSFIETSAL", "note": "[A11L]", "protein stability index": 2.32},
      {"variant": "AVPTDEARAFSEKNGLSFIETSAL", "note": "[A11S]", "protein stability index": 2.63},
      {"variant": "AVPTDEARAFKEKNGLSFIETSAL", "note": "[A11K]", "protein stability index": 1.96},
      {"variant": "AVPTDEARAFPEKNGLSFIETSAL", "note": "[A11P]", "protein stability index": 2.33},
      {"variant": "AVPTDEARAFEEKNGLSFIETSAL", "note": "[A11E]", "protein stability index": 2.76},
      {"variant": "AVPTDEARAFDEKNGLSFIETSAL", "note": "[A11D]", "protein stability index": 3.24},
      {"variant": "AVPTDEARAFYEKNGLSFIETSAL", "note": "[A11Y]", "protein stability index": 2.2},
      {"variant": "AVPTDEARAFTEKNGLSFIETSAL", "note": "[A11T]", "protein stability index": 2.31},
      {"variant": "AVPTDEARAAAEKNGLSFIETSAL", "note": "[F10A]", "protein stability index": 2.76},
      {"variant": "AVPTDEARARAEKNGLSFIETSAL", "note": "[F10R]", "protein stability index": 2.49},
      {"variant": "AVPTDEARALAEKNGLSFIETSAL", "note": "[F10L]", "protein stability index": 2.33},
      {"variant": "AVPTDEARAKAEKNGLSFIETSAL", "note": "[F10K]", "protein stability index": 2.37},
      {"variant": "AVPTDEARADAEKNGLSFIETSAL", "note": "[F10D]", "protein stability index": 3.86},
      {"variant": "AVPTDEARAGAEKNGLSFIETSAL", "note": "[F10G]", "protein stability index": 2.24},
      {"variant": "AVPTDEARAIAEKNGLSFIETSAL", "note": "[F10I]", "protein stability index": 2.44},
      {"variant": "AVPTDEARAQAEKNGLSFIETSAL", "note": "[F10Q]", "protein stability index": 3.08},
      {"variant": "AVPTDEARAPAEKNGLSFIETSAL", "note": "[F10P]", "protein stability index": 2.31},
      {"variant": "AVPTDEARANAEKNGLSFIETSAL", "note": "[F10N]", "protein stability index": 2.9},
      {"variant": "AVPTDEARAYAEKNGLSFIETSAL", "note": "[F10Y]", "protein stability index": 2.71},
      {"variant": "AVPTDEARAHAEKNGLSFIETSAL", "note": "[F10H]", "protein stability index": 2.54},
      {"variant": "AVPTDEARASAEKNGLSFIETSAL", "note": "[F10S]", "protein stability index": 2.84},
      {"variant": "AVPTDEARAVAEKNGLSFIETSAL", "note": "[F10V]", "protein stability index": 2.46},
      {"variant": "AVPTDEARAMAEKNGLSFIETSAL", "note": "[F10M]", "protein stability index": 2.27},
      {"variant": "AVPTDEARAWAEKNGLSFIETSAL", "note": "[F10W]", "protein stability index": 2.36},
      {"variant": "AVPTDEARAEAEKNGLSFIETSAL", "note": "[F10E]", "protein stability index": 3.81},
      {"variant": "AVPTDEARACAEKNGLSFIETSAL", "note": "[F10C]", "protein stability index": 2.43},
      {"variant": "AVPTDEARATAEKNGLSFIETSAL", "note": "[F10T]", "protein stability index": 2.91},
      {"variant": "AVPTDEARAFACKNGLSFIETSAL", "note": "[E12C]", "protein stability index": 2.85},
      {"variant": "AVPTDEARAFAWKNGLSFIETSAL", "note": "[E12W]", "protein stability index": 2.08},
      {"variant": "AVPTDEARAFAFKNGLSFIETSAL", "note": "[E12F]", "protein stability index": 1.69},
      {"variant": "AVPTDEARAFARKNGLSFIETSAL", "note": "[E12R]", "protein stability index": 2.55},
      {"variant": "AVPTDEARAFAKKNGLSFIETSAL", "note": "[E12K]", "protein stability index": 1.81},
      {"variant": "AVPTDEARAFAAKNGLSFIETSAL", "note": "[E12A]", "protein stability index": 2.07},
      {"variant": "AVPTDEARAFAGKNGLSFIETSAL", "note": "[E12G]", "protein stability index": 1.9},
      {"variant": "AVPTDEARAFADKNGLSFIETSAL", "note": "[E12D]", "protein stability index": 2.54},
      {"variant": "AVPTDEARAFAHKNGLSFIETSAL", "note": "[E12H]", "protein stability index": 1.96},
      {"variant": "AVPTDEARAFAYKNGLSFIETSAL", "note": "[E12Y]", "protein stability index": 1.74},
      {"variant": "AVPTDEARAFAPKNGLSFIETSAL", "note": "[E12P]", "protein stability index": 1.88},
      {"variant": "AVPTDEARAFAQKNGLSFIETSAL", "note": "[E12Q]", "protein stability index": 1.77},
      {"variant": "AVPTDEARAFAIKNGLSFIETSAL", "note": "[E12I]", "protein stability index": 1.39},
      {"variant": "AVPTDEARAFANKNGLSFIETSAL", "note": "[E12N]", "protein stability index": 2.41},
      {"variant": "AVPTDEARAFAVKNGLSFIETSAL", "note": "[E12V]", "protein stability index": 2.3},
      {"variant": "AVPTDEARAFATKNGLSFIETSAL", "note": "[E12T]", "protein stability index": 1.46},
      {"variant": "AVPTDEARAFAMKNGLSFIETSAL", "note": "[E12M]", "protein stability index": 1.54},
      {"variant": "AVPTDEARAFALKNGLSFIETSAL", "note": "[E12L]", "protein stability index": 1.75},
      {"variant": "AVPTDEARAFASKNGLSFIETSAL", "note": "[E12S]", "protein stability index": 2.01},
      {"variant": "AVPTDETRAFAEKNGLSFIETSAL", "note": "[A7T]", "protein stability index": 2.57},
      {"variant": "AVPTDEHRAFAEKNGLSFIETSAL", "note": "[A7H]", "protein stability index": 2.43},
      {"variant": "AVPTDEQRAFAEKNGLSFIETSAL", "note": "[A7Q]", "protein stability index": 2.87},
      {"variant": "AVPTDEPRAFAEKNGLSFIETSAL", "note": "[A7P]", "protein stability index": 2.04},
      {"variant": "AVPTDEGRAFAEKNGLSFIETSAL", "note": "[A7G]", "protein stability index": 2.17},
      {"variant": "AVPTDEVRAFAEKNGLSFIETSAL", "note": "[A7V]", "protein stability index": 2.25},
      {"variant": "AVPTDEKRAFAEKNGLSFIETSAL", "note": "[A7K]", "protein stability index": 2.19},
      {"variant": "AVPTDECRAFAEKNGLSFIETSAL", "note": "[A7C]", "protein stability index": 1.83},
      {"variant": "AVPTDELRAFAEKNGLSFIETSAL", "note": "[A7L]", "protein stability index": 2.28},
      {"variant": "AVPTDEYRAFAEKNGLSFIETSAL", "note": "[A7Y]", "protein stability index": 2.45},
      {"variant": "AVPTDEFRAFAEKNGLSFIETSAL", "note": "[A7F]", "protein stability index": 2.48},
      {"variant": "AVPTDENRAFAEKNGLSFIETSAL", "note": "[A7N]", "protein stability index": 2.33},
      {"variant": "AVPTDEIRAFAEKNGLSFIETSAL", "note": "[A7I]", "protein stability index": 2.21},
      {"variant": "AVPTDEWRAFAEKNGLSFIETSAL", "note": "[A7W]", "protein stability index": 2.09},
      {"variant": "AVPTDEERAFAEKNGLSFIETSAL", "note": "[A7E]", "protein stability index": 3.29},
      {"variant": "AVPTDESRAFAEKNGLSFIETSAL", "note": "[A7S]", "protein stability index": 2.68},
      {"variant": "AVPTDEDRAFAEKNGLSFIETSAL", "note": "[A7D]", "protein stability index": 2.99},
      {"variant": "AVPTDERRAFAEKNGLSFIETSAL", "note": "[A7R]", "protein stability index": 2.46},
      {"variant": "AVPTDEMRAFAEKNGLSFIETSAL", "note": "[A7M]", "protein stability index": 2.05}
    ]}
  ]
}
